Laboratory results from article PMC10746276, “CsrA coordinates the expression of ribosome hibernation and anti-σ factor proteins”.

Tests used:
CsrA-His6 [1] = molecular target: T1, CsrA-His6 (Escherichia coli, UniProt P69913 1-61); assay: EMSA; Hill coefficient 4.5; EMSA: 0.1 nM RNA, 10 mM MgCl2, 100 mM KCl, 32.5 ng yeast RNA, 20 mM DTT, 7.5% glycerol, 4 U SUPERasin, 30 min 37 C (pH not given); footprint: 2 nM RNA, 10 mM Tris-HCl pH 7.5, 10 mM MgCl2, 100 mM KCl, yeast RNA, acetylated BSA, 37 C; settings: protein: recombinant; tags: His6 (C-terminal by name); chain copies: 2; label: 5'-32P; hairpin (mFold)
CsrA-His6 [2] = molecular target: T1, CsrA-His6; assay: EMSA; EMSA: 0.1 nM RNA, 10 mM MgCl2, 100 mM KCl, 32.5 ng yeast RNA, 20 mM DTT, 7.5% glycerol, 4 U SUPERasin, 30 min 37 C (pH not given); footprint: 2 nM RNA, 10 mM Tris-HCl pH 7.5, 10 mM MgCl2, 100 mM KCl, yeast RNA, acetylated BSA, 37 C; settings: protein: recombinant; tags: His6 (C-terminal by name); chain copies: 2; label: 5'-32P
CsrA-His6 [3] = molecular target: T1, CsrA-His6; assay: EMSA; side-by-side with A(-15)G; differs from 95 nM in Fig. 6, RNA may differ; EMSA: 0.1 nM RNA, 10 mM MgCl2, 100 mM KCl, 32.5 ng yeast RNA, 20 mM DTT, 7.5% glycerol, 4 U SUPERasin, 30 min 37 C (pH not given); footprint: 2 nM RNA, 10 mM Tris-HCl pH 7.5, 10 mM MgCl2, 100 mM KCl, yeast RNA, acetylated BSA, 37 C; settings: protein: recombinant; tags: His6 (C-terminal by name); chain copies: 2; label: 5'-32P
CsrA-His6 [4] = molecular target: T1, CsrA-His6; assay: EMSA; no effect on affinity vs WT; EMSA: 0.1 nM RNA, 10 mM MgCl2, 100 mM KCl, 32.5 ng yeast RNA, 20 mM DTT, 7.5% glycerol, 4 U SUPERasin, 30 min 37 C (pH not given); footprint: 2 nM RNA, 10 mM Tris-HCl pH 7.5, 10 mM MgCl2, 100 mM KCl, yeast RNA, acetylated BSA, 37 C; settings: protein: recombinant; tags: His6 (C-terminal by name); chain copies: 2; label: 5'-32P

T1 sequence (P69913 whole entry): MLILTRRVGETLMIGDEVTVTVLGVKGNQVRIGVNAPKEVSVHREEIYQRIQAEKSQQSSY

Binder: GCGCAGGAAGAGCUGAAAAAGCUGGAAGCGC (structured_RNA) [yqjD BS2-BS3 fragment WT]
- Kd (CsrA-His6 [1]): 89 ± 6 nM

Binder: GGGUUUUACGCAAAUCCAGAACGAGAAUGUCUAAUCAG (ssRNA) [elaB leader GGA to CCA]
- binding result (CsrA-His6 [2]): no binding

Binder: GGGUUUUACGCAAAUGGAGAACGAGAAUGUCUAAUCAG (ssRNA) [elaB leader WT]
- Kd (CsrA-His6 [2]): 20 ± 8 nM

B1: yqjC leader WT (ssRNA)
RNA: GGGCGGUGGUUAACACUACCGCUUCGUUGUCUGGACAAUCGUUCCUUUGUAAUAGGUCCGAAUCACAAUGGAAGGUUCAAGAAUGAAAUACCGCAUCGCUUUAGCUGUU
- Kd (CsrA-His6 [2]): 95 ± 7 nM
- Kd (CsrA-His6 [3]): 15 ± 9 nM

B2: yqjC leader GGA1 mutant (GGA to AAA) (ssRNA)
RNA: GGGCGGUGGUUAACACUACCGCUUCGUUGUCUAAACAAUCGUUCCUUUGUAAUAGGUCCGAAUCACAAUGGAAGGUUCAAGAAUGAAAUACCGCAUCGCUUUAGCUGUU
- binding result (CsrA-His6 [4]): binds
